Substitutions are numbered along the chain they refer to.
Tests used:
[1] = target: T1, human integrin α5β1 on cells (endogenous, HUVEC; tumor or endothelial-expressed) (human, UniProt P08648 42-1049; P05556 21-798); assay: FACS on HUVEC (endogenous human α5β1), GeoMean against mAb concentration, fitted; experiment 030207
T1 construct: whole, on cells; also called cell surface integrin α5; endogenous α5β1

[2] = target: T1, human integrin α5β1 on cells …; assay: cell-based or functional assay
[3] = target: T1, human integrin α5β1 on cells …; assay: cell-based or functional assay; remark: listed apart in the source
[4] = target: T1, human integrin α5β1 on cells …; assay: FACS on HUVEC (endogenous human α5β1), GeoMean against mAb concentration, fitted; experiment 031307
Method: The 22B5/DLE, 24C7/DLE, 1 D9/DLE, and 2D2/DLE antibodies were tested for their binding affinity to cell surface integrin α5 using a FACS assay, employing endogenous human integrin α5β1 expressing cells (HUVEC). Briefly, the cells were detached using trypsin-EDTA and washed with cold PBS. After being aliquoted into 96-well plates, the cells were blocked by serum and incubated with different concentrations of specific mAb for 1 hour at 4° C. Subsequently, the cells were washed and incubated with an anti-human κ secondary antibody conjugated with the R-PE fluorophore and analyzed using a FACSCalibur flow cytometer. 10,000 events were collected for each sample without applying any gating. For KD determination, the Geometric Mean of each sample histogram was calculated and plotted as a function of the mAb concentration. KD was calculated after fitting to a two-state equilibrium model.

T1 sequence (P08648 42-1049, chain 1 of 2): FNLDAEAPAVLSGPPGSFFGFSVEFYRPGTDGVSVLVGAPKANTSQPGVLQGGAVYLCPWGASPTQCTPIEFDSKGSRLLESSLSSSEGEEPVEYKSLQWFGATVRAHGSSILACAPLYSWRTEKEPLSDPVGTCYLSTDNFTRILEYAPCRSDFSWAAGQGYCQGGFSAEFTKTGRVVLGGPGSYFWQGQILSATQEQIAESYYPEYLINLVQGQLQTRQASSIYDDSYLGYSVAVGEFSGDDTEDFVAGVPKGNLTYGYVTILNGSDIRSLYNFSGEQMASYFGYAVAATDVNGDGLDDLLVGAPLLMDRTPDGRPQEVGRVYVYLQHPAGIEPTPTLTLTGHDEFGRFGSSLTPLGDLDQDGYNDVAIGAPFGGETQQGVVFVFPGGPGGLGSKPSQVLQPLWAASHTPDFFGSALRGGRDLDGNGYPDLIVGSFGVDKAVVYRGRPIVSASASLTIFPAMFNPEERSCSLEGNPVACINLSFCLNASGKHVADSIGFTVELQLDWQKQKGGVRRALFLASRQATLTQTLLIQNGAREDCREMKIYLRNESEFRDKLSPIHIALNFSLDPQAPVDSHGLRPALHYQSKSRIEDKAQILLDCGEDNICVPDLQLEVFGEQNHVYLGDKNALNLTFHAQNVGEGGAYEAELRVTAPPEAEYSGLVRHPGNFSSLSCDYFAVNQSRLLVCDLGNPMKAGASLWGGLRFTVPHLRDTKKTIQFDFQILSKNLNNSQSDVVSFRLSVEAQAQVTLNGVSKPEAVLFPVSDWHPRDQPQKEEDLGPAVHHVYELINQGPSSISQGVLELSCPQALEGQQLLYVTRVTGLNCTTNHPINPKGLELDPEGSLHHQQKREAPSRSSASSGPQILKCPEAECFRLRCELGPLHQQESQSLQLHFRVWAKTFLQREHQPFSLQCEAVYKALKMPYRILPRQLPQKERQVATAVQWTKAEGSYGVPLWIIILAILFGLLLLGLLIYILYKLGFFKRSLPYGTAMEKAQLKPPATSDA
T1 sequence (P05556 21-798, chain 2 of 2): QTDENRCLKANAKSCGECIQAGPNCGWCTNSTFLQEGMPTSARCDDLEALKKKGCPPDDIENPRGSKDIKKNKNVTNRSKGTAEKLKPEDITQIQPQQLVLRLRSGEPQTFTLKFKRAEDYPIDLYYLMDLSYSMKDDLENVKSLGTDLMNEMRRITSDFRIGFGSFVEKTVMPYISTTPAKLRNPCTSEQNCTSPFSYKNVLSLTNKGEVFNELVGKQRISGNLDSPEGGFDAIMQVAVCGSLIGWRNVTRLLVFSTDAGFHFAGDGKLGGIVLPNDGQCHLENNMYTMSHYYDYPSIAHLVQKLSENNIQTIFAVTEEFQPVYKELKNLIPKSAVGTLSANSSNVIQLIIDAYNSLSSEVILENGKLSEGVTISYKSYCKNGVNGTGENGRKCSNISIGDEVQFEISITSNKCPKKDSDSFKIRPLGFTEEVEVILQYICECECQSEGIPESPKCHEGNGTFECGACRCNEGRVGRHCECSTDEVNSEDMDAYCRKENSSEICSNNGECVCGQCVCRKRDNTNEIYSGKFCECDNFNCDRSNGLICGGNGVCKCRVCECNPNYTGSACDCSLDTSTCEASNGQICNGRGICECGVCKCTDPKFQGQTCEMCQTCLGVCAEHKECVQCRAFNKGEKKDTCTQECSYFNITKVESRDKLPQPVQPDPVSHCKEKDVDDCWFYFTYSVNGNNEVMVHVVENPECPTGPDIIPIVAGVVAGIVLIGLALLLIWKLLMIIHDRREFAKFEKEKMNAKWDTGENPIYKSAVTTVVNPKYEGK

B1: 22B5 wild type IgG1 (antibody, V domains shown)
VH: QLQLQESGPGLVKPSETLSLTCTVSGGSISSSSYWGWIRQPPGKGLEWIGSIYYSGRNYNNPSLKSRVTISVDTSKNQFSLKLSSVTAADTAVYYCARHYYGSGSSYYYYDLDVWGQGTTVTVSS
VL: EIVLTQSPATLSLSPGERATLSCRASQSVSSYLAWYQQKPGQAPRLLIYDASNRATGIPARFSGSGSGTDFTLTISSLEPEDFAVYYCQQRSNWPLTFGGGTKVEIK
notes: Human IgG1 with wild type Fc (no DLE mutations); also called 22B5 wt IgG1; wt 22B5 IgG1
- Kd [1]: 1.95 nM
- IC50, inhibition of HUVEC adhesion to fibronectin (fluorescence 485/535 nM) [2]: 0.43 nM
- ADCC EC50, human PBMCs [3]: 0.23 nM

B2: 22B5 IgG2 (antibody, V domains shown)
VH: B1 VH
VL: B1 VL
- IC50, inhibition of HUVEC adhesion to fibronectin (fluorescence 485/535 nM) [2]: 0.37 nM

B3: 22B5 IgG4 (antibody, V domains shown)
VH: B1 VH
VL: B1 VL
- IC50, inhibition of HUVEC adhesion to fibronectin (fluorescence 485/535 nM) [2]: 0.57 nM

B4: 1D9/DLE (antibody, V domains shown)
VH: QVQLVESGGGVVQPGRSLRLSCAASGFPFSTYAMHWVRQAPGKGLEWVAVISYDGSNKYYADSVKGRFTISRDNSKNTLYLQMNSLRAEDTAVYYCARESPPIYYYYGMDVWGQGTTVTVSS
VL: B1 VL with L96R, G100Q
notes: also called 1D9 IgG1 DLE; 1D9 G1 DLE
- Kd [1]: 1.68 nM
- Kd [4]: 1.49 nM

B5: 2D2/DLE (antibody, IgG1, V domains shown)
VH: QVQLVESGGGVVQPGRSLRLSCAASGFTFSSYAMHWVRQAPGKGLEWVAVISFDGSTKYYADSVKGRFTISRDNSKNTLDLQMNSLRAEDTALYYCAREYWGTYYYGTDVWGQGTTVIVSS
VL: B1 VL with S30N, L96R, G100Q
notes: Constant regions: see the note of 1D9/DLE; also called 2D2 IgG1 DLE
- Kd [1]: 8.78 nM
- Kd [4]: 7.32 nM

B6: 1D9 (antibody, IgG1, V domains shown)
VH: B4 VH
VL: B1 VL with L96R, G100Q
notes: also called 1D9 G1; I D9
- Kd [1]: 1.69 nM

Reference: patent US20100330078A1 (Pfizer, published 2010)
